The source of these data is paper PMC3734082 (The Journal of Cell Biology, 2013).

The target of test [1] is T1, MBP-CHC(1–1074)-His6 (UniProt Q00610 1-1074).
T1 sequence (looked up): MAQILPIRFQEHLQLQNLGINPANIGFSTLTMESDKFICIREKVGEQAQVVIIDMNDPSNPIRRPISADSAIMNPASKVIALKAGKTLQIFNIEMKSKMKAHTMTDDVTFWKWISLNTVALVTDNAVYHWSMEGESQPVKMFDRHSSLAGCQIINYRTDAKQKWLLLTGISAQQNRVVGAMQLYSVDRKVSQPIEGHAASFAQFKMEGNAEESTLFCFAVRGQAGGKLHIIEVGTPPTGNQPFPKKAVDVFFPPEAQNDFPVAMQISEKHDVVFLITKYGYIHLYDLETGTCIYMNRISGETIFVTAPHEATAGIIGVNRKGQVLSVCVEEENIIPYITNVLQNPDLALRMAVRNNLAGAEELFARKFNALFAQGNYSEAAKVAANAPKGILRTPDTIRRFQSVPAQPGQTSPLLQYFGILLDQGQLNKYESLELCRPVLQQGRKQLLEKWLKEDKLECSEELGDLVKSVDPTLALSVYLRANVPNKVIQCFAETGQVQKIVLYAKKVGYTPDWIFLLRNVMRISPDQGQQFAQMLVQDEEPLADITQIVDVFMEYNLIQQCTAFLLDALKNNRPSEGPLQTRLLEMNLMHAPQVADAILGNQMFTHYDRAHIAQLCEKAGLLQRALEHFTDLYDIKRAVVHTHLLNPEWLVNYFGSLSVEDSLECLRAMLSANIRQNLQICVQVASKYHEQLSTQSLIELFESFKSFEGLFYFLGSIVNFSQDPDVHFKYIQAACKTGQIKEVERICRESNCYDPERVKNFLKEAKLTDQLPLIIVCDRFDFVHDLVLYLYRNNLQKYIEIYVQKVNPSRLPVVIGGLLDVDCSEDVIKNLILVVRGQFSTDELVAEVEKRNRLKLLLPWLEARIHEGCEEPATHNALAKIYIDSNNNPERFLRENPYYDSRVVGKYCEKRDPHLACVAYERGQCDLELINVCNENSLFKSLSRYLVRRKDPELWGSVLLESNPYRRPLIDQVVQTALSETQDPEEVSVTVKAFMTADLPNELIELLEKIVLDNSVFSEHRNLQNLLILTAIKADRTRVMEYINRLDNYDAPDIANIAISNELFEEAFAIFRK
The test is described as follows: pull-down.

The target of test [2] is T2, MBP-CHC(1–1074)-His6 C+ mutant (UniProt Q00610 1-1074, T87A | Q89A | K96E | K98E).
T2 sequence (looked up): T1 sequence (looked up) with T87A, Q89A, K96E, K98E
The test is described as follows: pull-down.

Residue numbers refer to the chain shown, from its start.

B1: GST-TACC3-His6, phosphorylated with Aurora A/TPX2 (natural protein)
chain: not shown
modifications: phosphorylated in vitro with Aurora A/TPX2 (phosphoserine at 558, pS558)
Regarding B1, the binding result in test [1] and in test [2] was “binds” throughout.
